Measurements published in the DeepSol protein solubility set.

Test: soluble on expression in E. coli; label from the status in PepcDB or PDB records

| Sequence | soluble on expression in E. coli |
| --- | --- |
| MSQMAQSLRSQFATDKQVLQKFLNLDQKGMYQALYIWIDGSGENIRAKTRTFDFEPTDPEKLPIWNFDGSSTGQAEGADSDVYLKPVAIYPDPFRQGKNKLVMCETYDNKKKPTATNYRQRCKEVMEKAADQHPWFGMEQEYTLLDIDGHPFGWPKNGFPGPQGPYYCGVGANKVYGRDIVEAHYRACLYAGIQISGTNAEVMPGQWEFQVGPCEGIQMGDQLWVARYLLQRVAEEFGVIASFDCKPIKGDWNGAGCHTNFSTDKMRNPGGIDEIMSAINKLSLVHPQHIAYYDPHGGKDNERRLTGLHETASIDKFSYGVASRASSIRIPRSTDDDGYGYFEDRRPSSNCDPYTVTGALVRTVCLEGAERKLSMMYVPSQAPNITKH | not soluble |
| MSQNASVGIVMPQKIPFEMPLVLENGKTLPRFDLMIETYGELNAEKNNAVLICHALSGNHHVAGRHSAEDKYTGWWDNMVGPGKPIDTERFFVVGLNNLGGCDGSSGPLSINPETGREYGADFPVVTVKDWVKSQAALADYLGIEQWAAIVGGSLGGMQALQWTISYPERVRHALVIASAPKLSTQNIAFNDVARQAILTDPDFNEGHYRSHNTVPARGLRIARMMGHITYLAEDGLGKKFGRDLRSNGYQYGFGVEFEVESYLRYQGDKFVGRFDANTYLLMTKALDYFDPAADFGDSLTRALQNVKAKFFVASFSTDWRFAPERSHELVKALIAAQKSVQYIEVKSAHGHDAFLMEDEAYMRAVAAYMNNVYKECQQ | not soluble |
| MSQRVSYYEIAPEGMKIMMDMEKYTKQSSINRTTRELIKIRVSQMNGCAFCIDMHTSDARKMGETEQRIYCLHAWNECDFYSPEEKAALELSEHITLIPSKRVPDELYHRVREHYDEEQYVDLVLIINQINSWNRISIAMGNRAASK | soluble |
| MSQSKVAMKKDSMRKNKKLVINIALDKEVLASRVEADHDLGSVRDEKERLESSERRREVCSKAEDIVDKAIDNHSRVRGDGIMREADVGTGLSGALNRLREQGTFKEEGKVVGVKDNNHEDDRFKDRFKDIQIQRVNKWGRIMTEKEAYRSLCHGFHGKGPGKKKQEKQRKKHEDKSKQMESSERSVERIREIHAISKTPYIVL | soluble |
| MSQVQNNSSVSELLASNSGSIKSYRKDEEDPQDRFLKLLVTQMQNQDPLSPMDNAEVTSQMAQISTVSGIDKLNTTLEKLVADSDARRSFEAATMIGRGVLVPGTDMQLENQAAIGGFELAESVDKLTVTVKDSAGITVREIDLGAQAAGVGTFVWDGMANNGNAAADGQYSFALKAIRADKEVSSSALAFGSVSSAQAGKDGALLEVGRLGYVGMDAVKKIF | not soluble |
| MSQYERFDSVLLSMAQQLSGGVPEMLDVLFEFLSRKTDFYSGAGVDQARTLLLEKFDKHGGKAMKEAEEAKKRKEEQERKLAERRAAQKAKEEEEFRNAKVVEVTDEEAAAFEKEQAKNSVENLEKFVDNEGETSKDAEVEDEDSKLMKPNSGNGADLAKYQWTQTLQELEVKIPIAAGFAIKSRDVVVKIEKTSVSVGLKNQAPIVDGKLPHAIKVENCNWVIENGKAIVLTLEKINDMEWWNRFLDSDPPINTKEVKPENSKLSDLDGETRAMVEKMMYDQRQKEMGLPTSDEKKKHDMLQQFMKQHPEMDFSNAKIG | soluble |
| MSQYVVCALYKFVELNNYQELREPLLALMEKHHIRGTLLLAGEGINGTVASDRAGIDTLLEWLNTEPRLTGTVYKESYSETQPFNRTKVKLKKEIVTLGVEGIDPRHVVGTYVKPQDWNDLIADPEVFVVDTRNDYEIEIGTFKGAVNPNTETFREFPDYVKENMDPAKHKKVAMFCTGGIRCEKSTAYMKEQGFEEVYHLEGGILKYLEEVPQEESMWEGDCYVFDGRVAVNHQLEKADYDLCNACRLPITDEDKQSELFEQGVSCPKCHGKHSEEQVERFREREKQVSLANQRGEQHVGGESAKQRAQRREAKLAKKAAQRKQALEHHHHHH | soluble |
| MSRFDSGLPSVRQVQLLIKDQTPVEIKLLTGDSLFGTIRWQDTDGLGLVDDSERSTIVRLAAIAYITPRR | soluble |
| MSRPLGFIGYEFGDDEMFVQQMIEKKSNAEQAKMLEQQKKMLECTETMPEESEPVPMKCLDFEEAFQSESVSKGYESPYKNISFLKEDAVTVNTMSHCPADDIAKLIRNIQNSVYTLGIEEARQCRRGKLLNVLKPTGSASPRYLQPTPPKNVAEETTGSQ | not soluble |
| MSRRKAGSAPRRVEPAPAANPDDEMEMQDLVIELKPEPDAQPQQAPRLGPFSPKEVSSAGRFGGEPHHSPGPMPAGAALLALGPRNPWTLWTPLTPNYPDRQPWTDKHPDLLTCGRCLQTFPLEAITAFMDHKKLGCQLFRGPSRGQGSEREELKALSCLRCGKQFTVAWKLLRHAQWDHGLSIYQTESEAPEAPLLGLAEVAAAVSAVVGPAAEAKSPRASGSGLTRRSPTCPVCKKTLSSFSNLKVHMRSHTGERPYACDQCPYACAQSSKLNRHKKTHRQVPPQSPLMADTSQEQASAAPPEPAVHAAAPTSTLPCSGGEGAGAAATAGVQEPGAPGSGAQAGPGGDTWGAITTEQRTDPANSQKASPKKMPKSGGKSRGPGGSCEFCGKHFTNSSNLTVHRRSHTGERPYTCEFCNYACAQSSKLNRHRRMHGMTPGSTRFECPHCHVPFGLRATLDKHLRQKHPEAAGEA | not soluble |
| MSRRSSSSDSAVYVNFLERERRADVEKAARLYETRRDRVEPSYVFPAPSGEKRVGPNSNTGQKGVVGSYPVSIDYLTVVFSYARLAEAGYFDEPRFLLYLLFGLSVDDVIVGSHTSVRWHFYNSSASIIDSNGDLVGKIGWDGNADSYCISLTGSACRYIHDWSKVKRSLASLDARITRCDVAYDDYDGILGTVRHHEALAREHLAPAGGCLLFSSGGTPPRTRFLDDHGGGSGCTLYVGQRGHKQLCIYEKGKQLGVAESPWVRYEVRLYAKHAVIPFDLLEEPMRYLRGSYDYLCQLFSSVVVSPVSRIRTVVKHVEATGEALVRWLRRQVGPALGVLRQALGCGFSDFIVDRVEREGLPSRFRRICRGGDLLAYLRETLIDCSVGVCV | not soluble |
| MSRSRKPDWLKMRPPSGERFTDIKQTLRDRNLNTVCEEANCPNLGECWSGRDGPGTATFMLMGDRCSRGCNFCDVETGGMDPLDPDEPQQVADAVAEIGLDYVVLTSVDRDDLPDQGASHFAETIRAIKERDPSILVECLIPDFQGEPDLVRKIIDADPDVIAHNIETVDRLQWPVRDRRAGYEQSLSVLRQVNRESDCYSKTSLMLGVGEYAHEVYQTLSDLRQAGVDVVTFGQYLQPSRSHLEVSEYVHPDAFDTWQQVAEAEFDFLYCASGPMVRSSYRAGELFVESVLREGRSADEARAEVRAND | not soluble |
| MSSAKHFTEVLIGGKVYTLSGFEGEEYLQKVSSYLNHKITECANSEGYRKQSADTRNVLLALNIADDYFKAKKQGDSLESDIELKDKEMYDLKHELISVQIKLENAEKELAKMKEENNDLQMQIVKLETEMKNRRK | not soluble |
| MSSANIPATQSALIFEKYGGPLEVRQVSVPQPQENELLVKIEYSGICHSDLHTWEGDFEYASICPLIGGHEGAGTVVTIGSKVKGWNIGDRAGIKLINANCLNCEYCKTGHEPLCDHIQNYGIDRHGTFQEYLTIRDIDAIKVSNDTNLAAAAPVLCGGVTAYKSLKATNVKPGQIVVLTGAGGGLGSFGIQYAKAMGMRVVAVDHISKEDHCRNLGAEWFVDAFDTPDIVAHIRKLTNGGAHGVVSFAAAKKPMEYALEYVRKRGTVVFVGLPKDGTIPLDTLSLICNEITVKGSIVGSRMDVDEAIDFITRGIVHVPIELVKLEDVPSVYQRMKDGKVTSRVVVDFSMR | not soluble |
| MSSFGHRAFFSCCLLLEGETLHSIKLRKEATYQPQSGWPVRWPIRYPRALPLASHVHPYHMIVKLPHPRTQPRLFLWLSLHWTGIPFLGKPGIGRNRVKSKQFSHFQQSKIKTTMRKKTTNRKQKAERCQYRLVTA | not soluble |
| MSSGKRRNPLGLSLPPTVNEQSESGEATAEEATATVPLEEQLKKLGLTEPQTQRLSEFLQVKEGIKELSEDMLQTEGELGHGNGGVVNKCVHRKTGVIMARKLVHLEIKPSVRQQIVKELAVLHKCNSPFIVGFYGAFVDNNDISICMEYMDGLSLDIVLKKVGRLPEKFVGRISVAVVRGLTYLKDEIKILHRDVKPSNMLVNSNGEIKLCDFGVSGMLIDSMANSFVGTRSYMAPERLTGSHYTISSDIWSFGLSLVELLIGRYPVPAPSQAEYATMFNVAENEIELADSLEEPNYHPPSNPASMAIFEMLDYIVNGPPPTLPKRFFTDEVIGFVSKCLRKLPSERATLKSLTADVFFTQYADHDDQGEFAVFVKGTINLPKLNP | not soluble |
| MSSGSRPSSGGGGGGGGASGGAGGGAPGGGGGGIRGFFSKLRKPSDQPNGNQVQVGTRTFEAHELQKLIPQLEEAISRKDAQLRQQQTIVEGHIKRISELEGEVTTLQRECDKLRSVLEQKAQSAASPGGQPPSPSPRTDQLGNDLQQKAVLPADGVQRAKKIAVSAEPTNFENKPATLQHYNKTVGAKQMIRDAVQKNDFLKQLAKEQIIELVNCMYEMRARAGQWVIQEGEPGDRLFVVAEGELQVSREGALLGKMRAGTVMGELAILYNCTRTASVQALTDVQLWVLDRSVFQMITQRLGMERHSQLMNFLTKVSIFQNLSEDRISKMADVMDQDYYDGGHYIIRQGEKGDAFFVINSGQVKVTQQIEGETEPREIRVLNQGDFFGERALLGEEVRTANIIAQAPGVEVLTLDRESFGKLIGDLESLKKDYGDKERLAQVVREPPSPVKIVDDFREEFAQVTLKNVKRLATLGVGGFGRVELVCVNGDKAKTFALKALKKKHIVDTRQQEHIFAERNIMMETSTDWIVKLYKTFRDQKFVYMLLEVCLGGELWTTLRDRGHFDDYTARFYVACVLEGLEYLHRKNIVYRDLKPENCLLANTGYLKLVDFGFAKKLASGRKTWTFCGTPEYVSPEIILNKGHDQAADYWALGIYICELMLGRPPFQASDPMKTYTLILKGVDALEIPNRRIGKTATALVKKLCRDNPGERLGSGSGGVNDIRKHRWFMGFDWEGLRSRTLKPPILPKVSNPADVTNFDNYPPDNDVPPDEFSGWDEGF | not soluble |
| MSSHTATKYDVFLSFRGHDTRHNFISFLYKELVRRSIRTFKDDKELENGQRFSPELKSPIEVSRFAVVVVSENYAASSWCLDELVTIMDFEKKGSITVMPIFYGVEPNHVRWQTGVLAEQFKKHASREDPEKVLKWRQALTNFAQLSGDCSGDDDSKLVDKIANEISNKKTIYATI | soluble |
| MSSIDPATFAAQFAQIEIQPFKQRYQLQTNTYQSQLSALGKVESAMREFRTALNEMNSSTNSIIKNSTSISQEGYFTANADAKALSGSYQIFVEQVATSHQ | not soluble |
| MSSKANHAKTVICGIINVTPDSFSDGGQFFALEQALQQARKLIAEGASMLDIGGESTRPGSSYVEIEEEIQRVVPVIKAIRKESDVLISIDTWKSQVAEAALAAGADLVNDITGLMGDEKMPHVVAEARAQVVIMFNPVMARPQHPSSLIFPHFGFGQAFTEEELADFETLPIEELMEAFFERALARAAEAGIAPENILLDPGIGFGLTKKENLLLLRDLDKLHQKGYPIFLGVSRKRFVINILEENGFEVNPETELGFRNRDTASAHVTSIAARQGVEVVRVHDVASHRMAVEIASAIRLADEAENLDLKQYK | soluble |
